Measured values from PMC8960791 (2022).

Molecular target: soluble HLA-E-VL9, HLA-E*01:03 heavy chain refolded with β2-microglobulin and synthetic VL9 peptide (human | )
Experiment: SPR

koff: 0.51 s⁻¹
B1: 3H4 IgG, recombinant 3H4 in a human IgG1 backbone (antibody, V domains shown)
VH: EVQLQESGPELVKPGASVKIPCKASGYTFTDYNMDWVKQSHGKSLEWIGDINPNNGGTIYNQKFKGKATLTVDKSSSTAYMELRSLTSEDTAVYYCARPDYYGSSYGWYFDVWGTGTTVTVSS
VL: DIVITQSPSSMYASLGERVTITCKASQDINSYLSWFQQKPGKSPKTLIYRANRLVDGVPSRFSGSGSGQDYSLTISSLEYEDMGIYYCLQYDEFPLTFGAGTKLELK
